These are literature values, as cited in publication PMC2225448.

The target in series [1] is EGFR pY1069 (Homo sapiens) (UniProt P00533).
Series [2] deals with EGFR pY1069 pY1069 (Homo sapiens) (UniProt P00533).
The target of series [3] is ErbB2 (Homo sapiens) (UniProt P04626).

Sequence of Grb7 (Q14451 whole entry): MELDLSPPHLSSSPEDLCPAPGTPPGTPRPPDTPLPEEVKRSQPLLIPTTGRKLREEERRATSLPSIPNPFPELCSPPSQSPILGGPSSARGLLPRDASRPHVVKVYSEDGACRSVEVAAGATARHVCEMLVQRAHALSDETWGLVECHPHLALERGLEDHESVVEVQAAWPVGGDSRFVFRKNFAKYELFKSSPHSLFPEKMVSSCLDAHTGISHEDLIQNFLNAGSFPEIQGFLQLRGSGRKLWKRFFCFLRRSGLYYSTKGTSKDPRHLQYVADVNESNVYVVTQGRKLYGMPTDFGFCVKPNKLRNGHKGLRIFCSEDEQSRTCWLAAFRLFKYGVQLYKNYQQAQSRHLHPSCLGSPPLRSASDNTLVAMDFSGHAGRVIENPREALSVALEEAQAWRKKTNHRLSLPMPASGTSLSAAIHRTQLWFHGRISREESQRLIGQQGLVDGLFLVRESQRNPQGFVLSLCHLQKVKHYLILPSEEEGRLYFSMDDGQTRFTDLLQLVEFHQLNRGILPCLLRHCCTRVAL

As for Cbl (from UniProt P22681), the dissociation constant Kd in series [1] and in series [2] was 400 nM throughout. For Grb7 (from UniProt Q14451), the Kd – broadly, a measure of binding affinity in units of concentration – in series [3] was 2300 nM.
